Source: the RNAGym collection of RNA variant scans (doi:10.1073/pnas.2313332121)
Fewer inactive variants are shown than the library holds.

B1: TPR 5TU (parent)
chain: GGAUCUUCUCGAUCUAACAAAAAAGACAAAUCUGCCACAAAGCUUGAGAGCAUCUUCGGAUGCAGAGGCGGCAGCCUUCGGUGGCGCGAUAGCGCCAACGUUCUCAACUAUGACACGCAAAACGCGUGCUCCGUUGAAUGGAGUUUAUCAUG

Variants of: B1
Assay: polymerase ribozyme fitness, log enrichment relative to wild type (log ratio); higher = more active; in vitro selection for triplet polymerase activity
Procedure, shortened: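 Mutant libraries of each subunit of a heterodimeric triplet polymerase ribozyme were built by PCR and transcribed. Each library went through one round of in vitro selection in triplicate: annealing with biotinylated primer, partner subunit and triplets, frozen incubation at −7 °C, gel excision of extended constructs, streptavidin-bead capture and RT-PCR. Input and output libraries were Illumina-sequenced; only genotypes with ≥10 input reads and ≥1 read per output were kept. Fitness is log2(genotype enrichment/wild-type enrichment), using inverse-variance-weighted replicate averages.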

Going from C114G G133C to A97U A119G U130C, the “polymerase ribozyme fitness (log ratio)” value rises from -3.93 to 0.572.

First: U101G G126U
Second: U109C G117A U146A
The “polymerase ribozyme fitness (log ratio)” value of the first is higher: 0.138 for the first, -3.86 for the second.

Going from C96U G141U to C105G C132A, the “polymerase ribozyme fitness (log ratio)” value falls from -0.301 to -3.96.

Compared with A106G C118A, C103U G128A is lower in “polymerase ribozyme fitness (log ratio)” value: -0.47 for the first, -3.93 for the second.

C116A C123U C125U and A107U A120U C123A are within 0.2 log units of each other in “polymerase ribozyme fitness (log ratio)” value: -3.41 for the first, -3.58 for the second.

C103U U134G G141C and A113C G128A are within 0.2 log units of each other in “polymerase ribozyme fitness (log ratio)” value: -4.14 for the first, -4.02 for the second.

Going from C116U A142C to C99G A119C, the “polymerase ribozyme fitness (log ratio)” value rises from -1.1 to -0.2.

First: C105U G143U
Second: U101G U145G
The “polymerase ribozyme fitness (log ratio)” value of the first is lower: -2.41 for the first, -0.0241 for the second.

First: A98U U146G A150U
Second: A97G C103A
The “polymerase ribozyme fitness (log ratio)” value of the first is higher: -0.247 for the first, -0.693 for the second.

Going from U109G U151C to A107G U144G, the “polymerase ribozyme fitness (log ratio)” value rises from -3.91 to -3.59.

First: G117A G141C
Second: A113G A122U G136A U148A
The “polymerase ribozyme fitness (log ratio)” value of the first is higher: -3.29 for the first, -3.76 for the second.

Going from A106C U134C to A97U U144A, the “polymerase ribozyme fitness (log ratio)” value falls from 0.274 to -1.56.

Compared with U102G C116U, C99U C125U U144G is higher in “polymerase ribozyme fitness (log ratio)” value: -2.66 for the first, -0.905 for the second.

First: U101G A137G
Second: A98G C103A
The “polymerase ribozyme fitness (log ratio)” value of the first is lower: -1.31 for the first, -0.961 for the second.

Compared with C105U G124A, C96U U135C G140U is lower in “polymerase ribozyme fitness (log ratio)” value: 0.519 for the first, -3.67 for the second.

Compared with C114G G140U, C116A G141A is higher in “polymerase ribozyme fitness (log ratio)” value: -3.9 for the first, -2.34 for the second.

Compared with C103G U145C, U104G U145G is higher in “polymerase ribozyme fitness (log ratio)” value: -1.74 for the first, -0.945 for the second.

Compared with G100A G136U A142U, C116A G136A is higher in “polymerase ribozyme fitness (log ratio)” value: no more than -4.2 for the first, 1.97 for the second.

Going from U102G U144C to C99U, the “polymerase ribozyme fitness (log ratio)” value rises from -3.06 to -0.26.

C99A and C99G are within 0.2 log units of each other in “polymerase ribozyme fitness (log ratio)” value: -0.806 for the first, -0.744 for the second.

First: U109C
Second: U109A
The “polymerase ribozyme fitness (log ratio)” value of the first is lower: -2.81 for the first, -1.11 for the second.

Compared with U109G, A113G C118G is lower in “polymerase ribozyme fitness (log ratio)” value: -0.578 for the first, -1.86 for the second.

First: C116A U148A
Second: C108U U146A
The “polymerase ribozyme fitness (log ratio)” value of the first is lower: -3.52 for the first, -2.84 for the second.

A110C G140A and A106G C116U U139A cannot be ordered by “polymerase ribozyme fitness (log ratio)” value: no more than -4.2 for the first, no more than -4.2 for the second.

Going from A106G A119C C125U to U101G U144G, the “polymerase ribozyme fitness (log ratio)” value falls from -0.389 to -0.737.

Compared with U101G U144C, C114G G141C U148A is lower in “polymerase ribozyme fitness (log ratio)” value: -1.9 for the first, no more than -4.2 for the second.

First: A113C
Second: A113G
The “polymerase ribozyme fitness (log ratio)” value of the first is lower: -2.35 for the first, -0.894 for the second.

Going from A113U to A97U U102C A138C, the “polymerase ribozyme fitness (log ratio)” value falls from -1.59 to no more than -4.2.

Compared with A106C C125G, A115U A142C is lower in “polymerase ribozyme fitness (log ratio)” value: -1.27 for the first, -3.39 for the second.

Going from A98U U135A to C108U G141U, the “polymerase ribozyme fitness (log ratio)” value falls from -2.55 to -3.1.

Going from A107C A119G C125A to A98U G141A, the “polymerase ribozyme fitness (log ratio)” value rises from no more than -4.2 to -0.0351.

First: A98U G141C
Second: C105A A150C
The “polymerase ribozyme fitness (log ratio)” value of the first is higher: -0.0983 for the first, -3.93 for the second.

A97U G100A and A106G U109C are within 0.2 log units of each other in “polymerase ribozyme fitness (log ratio)” value: -4.1 for the first, -3.91 for the second.

Compared with A98U, A98G is higher in “polymerase ribozyme fitness (log ratio)” value: -0.453 for the first, -0.208 for the second.

Compared with C105U U130A C131G G140U, A113U U127C is higher in “polymerase ribozyme fitness (log ratio)” value: -3.96 for the first, -2.98 for the second.

Compared with U104G C118G, A115U G141U is higher in “polymerase ribozyme fitness (log ratio)” value: -1.89 for the first, -1.29 for the second.

Compared with C99G C108U, C99G G152A is higher in “polymerase ribozyme fitness (log ratio)” value: -4.14 for the first, -2.39 for the second.

First: C116U G141A U146C
Second: C96U U102G G141C
The “polymerase ribozyme fitness (log ratio)” value of the first is higher: 0.219 for the first, -4.12 for the second.

First: A97U G124U C149G
Second: A97U C118G A121G
The “polymerase ribozyme fitness (log ratio)” value of the first is lower: -3.65 for the first, -1.56 for the second.

Going from A106C A115U A120C G136C to A97U A137U, the “polymerase ribozyme fitness (log ratio)” value falls from -3.11 to no more than -4.2.

Compared with C116A A142G, U101A C131U is higher in “polymerase ribozyme fitness (log ratio)” value: 0.244 for the first, 0.454 for the second.

Compared with C96U U134C, G117A A150C is lower in “polymerase ribozyme fitness (log ratio)” value: -0.883 for the first, -3.86 for the second.
